Test results as given in article PMC12154184, “An Anti-BCMA Affibody Affinity Protein for Therapeutic and Diagnostic Use in Multiple Myeloma” (International Journal of Molecular Sciences, 2025).

Biological target: T1, human APRIL (A Proliferation Inducing Ligand) (human, UniProt O75888 105-250)
T1 construct: No catalogue number is printed; also called hAPRIL; source: bought: R&D Systems
T1 sequence (looked up): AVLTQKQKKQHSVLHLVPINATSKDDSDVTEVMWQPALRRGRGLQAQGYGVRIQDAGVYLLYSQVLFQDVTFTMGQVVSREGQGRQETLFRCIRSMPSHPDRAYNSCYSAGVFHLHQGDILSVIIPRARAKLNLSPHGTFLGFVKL
Experiment: SPR; blocking assay, Biacore T200; human BCMA-rFc immobilised; 1 µM 1-E6 (affibody-His6) or running buffer injected first, then 100 nM APRIL or 25 nM belantamab; PBS-T
Conditions: both partners purified

binding result: binds
B1: recombinant human BCMA extracellular domain fused to the Fc portion of rabbit IgG (BCMA-rFc) (Fc fusion, UniProt Q02223 5-50, looked up)
chain: AGQCSQNEYFDSLLHACIPCQLRCSSNTPPLTCQRYCNASVTNSVK
notes: human B Cell Maturation Antigen (BCMA, TNFRSF17, CD269), residues 5-50 containing the ECD as told in the results; the methods give residues 1-54 of UniProt Q02223 for the biotinylated selection antigen (cat. no. 10620-H03H-B); no range is printed for 10620-H15H itself; The discussion speaks of 45 residues; also called human BCMA-rFc; immobilised BCMA; source: bought: Sino Biological (cat. no. …)
